Molecular target: T1, human LHRH receptor (human, UniProt P30968 1-328)
T1 sequence: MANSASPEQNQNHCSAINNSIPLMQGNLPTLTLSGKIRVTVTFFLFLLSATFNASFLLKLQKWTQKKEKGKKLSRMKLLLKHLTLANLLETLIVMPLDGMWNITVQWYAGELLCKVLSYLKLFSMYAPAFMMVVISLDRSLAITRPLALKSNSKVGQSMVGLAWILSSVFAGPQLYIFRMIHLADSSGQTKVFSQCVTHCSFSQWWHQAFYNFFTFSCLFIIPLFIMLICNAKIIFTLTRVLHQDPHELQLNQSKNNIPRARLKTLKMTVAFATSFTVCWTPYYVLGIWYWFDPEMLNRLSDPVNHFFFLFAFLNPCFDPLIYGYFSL
Assay: cell-based or functional assay

B1: EP-100 (KFAKFAKKFAKFAKKFAKQHWSYGLRPG) (peptide)
peptide: KFAKFAKKFAKFAKKFAKQHWSYGLRPG
- cytotoxicity IC50, MTT assay, 24 h, AN3-CA human endometrial cancer cells: 3.3 µM
- cytotoxicity IC50, MTT assay, 24 h, LNCaP prostate cancer cells: 1.5 µM
- cytotoxicity IC50, MTT assay, 24 h, MDA-MB-231 human breast cancer cells: 5.5 µM
- cytotoxicity IC50, MTT assay, 24 h, MDA-MB-435S breast cancer cells: 0.8 µM
- cytotoxicity IC50, MTT assay, 24 h, OVCAR-3 ovarian cancer cells: 3 µM
- cytotoxicity IC50, MTT assay, 24 h, PC-3 prostate cancer cells: 5.5 µM

From US20250327113A1 (ESPERANCE PHARMACEUTICALS, published 2025)
